Assay results reported in paper PMC8521305.

Target: glycophorin A (GlyA) TMH
Test: SEC

stoichiometry N (helices per nanodisc): 2
Substance: glycophorin A (GlyA) TMH (domain or fragment)
